Target: UV-DDB (DDB1-DDB2 heterodimer);SMUG1 WT (UniProt Q16531+Q92466+Q53HV7)
Test: single-molecule DNA tightrope
Details: both Qdot-labeled; 91.1% of co-localized particles stationary and persistent; tetrahydrofuran abasic site every 2 kb; EMSA: 8 nM DNA, 20 mM HEPES pH 7.5, 150 mM NaCl, 2 mM DTT (5 mM for SMUG1), 5% glycerol, 0.5 mg/ml BSA (0.5 mg/l [sic] for SMUG1), +/- 1.5 mM MgCl2, RT 20 min

Chain of UV-DDB (DDB1-DDB2 heterodimer);SMUG1 WT (Q16531 whole entry, chain 1 of 3): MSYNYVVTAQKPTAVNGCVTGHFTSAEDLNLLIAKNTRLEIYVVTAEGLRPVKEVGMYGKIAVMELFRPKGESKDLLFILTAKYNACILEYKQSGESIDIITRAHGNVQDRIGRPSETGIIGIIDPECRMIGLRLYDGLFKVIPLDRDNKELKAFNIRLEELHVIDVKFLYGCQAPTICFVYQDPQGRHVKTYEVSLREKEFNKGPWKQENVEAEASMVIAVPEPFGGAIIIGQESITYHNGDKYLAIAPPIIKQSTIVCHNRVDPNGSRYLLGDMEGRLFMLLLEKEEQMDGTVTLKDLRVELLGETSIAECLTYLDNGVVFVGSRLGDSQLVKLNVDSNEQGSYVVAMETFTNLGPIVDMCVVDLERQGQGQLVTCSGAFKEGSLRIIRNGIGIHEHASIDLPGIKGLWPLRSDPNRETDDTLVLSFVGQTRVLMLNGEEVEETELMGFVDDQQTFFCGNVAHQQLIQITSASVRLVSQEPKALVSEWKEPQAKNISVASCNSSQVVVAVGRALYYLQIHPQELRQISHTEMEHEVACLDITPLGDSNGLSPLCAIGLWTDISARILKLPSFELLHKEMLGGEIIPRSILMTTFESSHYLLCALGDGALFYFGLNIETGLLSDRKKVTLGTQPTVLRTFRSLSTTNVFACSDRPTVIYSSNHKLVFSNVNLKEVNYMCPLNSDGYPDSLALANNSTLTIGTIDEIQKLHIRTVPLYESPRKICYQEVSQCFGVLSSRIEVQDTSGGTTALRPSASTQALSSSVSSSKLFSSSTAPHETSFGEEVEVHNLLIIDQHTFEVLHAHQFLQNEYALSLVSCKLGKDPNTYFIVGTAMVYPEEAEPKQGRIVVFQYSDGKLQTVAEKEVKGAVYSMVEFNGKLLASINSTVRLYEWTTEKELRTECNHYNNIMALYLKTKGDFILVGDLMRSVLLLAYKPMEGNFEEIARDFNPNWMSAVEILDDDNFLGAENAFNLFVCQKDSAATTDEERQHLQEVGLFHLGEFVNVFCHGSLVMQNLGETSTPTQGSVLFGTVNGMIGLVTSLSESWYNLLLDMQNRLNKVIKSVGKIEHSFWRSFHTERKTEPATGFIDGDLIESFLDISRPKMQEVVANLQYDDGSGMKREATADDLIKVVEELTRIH
Chain of UV-DDB (DDB1-DDB2 heterodimer);SMUG1 WT (Q92466 whole entry, chain 2 of 3): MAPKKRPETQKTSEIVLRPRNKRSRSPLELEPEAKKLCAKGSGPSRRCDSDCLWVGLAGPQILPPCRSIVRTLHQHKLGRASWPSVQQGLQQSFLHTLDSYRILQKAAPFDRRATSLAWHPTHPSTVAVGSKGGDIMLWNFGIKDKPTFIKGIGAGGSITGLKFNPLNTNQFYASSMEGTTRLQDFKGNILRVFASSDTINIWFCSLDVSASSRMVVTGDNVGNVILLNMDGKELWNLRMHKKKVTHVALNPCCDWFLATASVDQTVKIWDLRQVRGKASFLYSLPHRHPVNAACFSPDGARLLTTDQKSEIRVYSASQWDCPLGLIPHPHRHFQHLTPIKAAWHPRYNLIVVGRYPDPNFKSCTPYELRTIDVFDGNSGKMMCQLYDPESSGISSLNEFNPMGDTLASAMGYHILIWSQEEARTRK
Chain of UV-DDB (DDB1-DDB2 heterodimer);SMUG1 WT (Q53HV7 whole entry, chain 3 of 3): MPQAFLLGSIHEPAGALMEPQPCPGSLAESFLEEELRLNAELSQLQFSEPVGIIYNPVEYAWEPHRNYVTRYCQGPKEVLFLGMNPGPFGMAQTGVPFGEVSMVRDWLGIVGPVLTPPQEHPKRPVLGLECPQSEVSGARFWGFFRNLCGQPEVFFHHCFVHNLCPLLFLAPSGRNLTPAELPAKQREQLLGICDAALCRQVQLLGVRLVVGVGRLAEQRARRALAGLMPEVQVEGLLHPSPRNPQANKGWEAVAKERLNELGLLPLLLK

Work on “DNA tightrope with one THF site every 2 kb” yielded a binding (% of particles co-localized) of 15.6.
